{"source": "patent US20240116985A1", "about": "“STAPLED PEPTIDES AND METHODS THEREOF” (priority 2020, published 2024)", "binders": {"B1": {"name": "I-2015 (peptide)", "peptide": "Ac-[αAllylPro]D[tBuAla][B5(4)]NTAAYN[PyrS2″][3Thi][Bta]Q-NH2", "modifications": "staple 1-4, 4-11; not fully specified; printed as Ac-PL3-Asp-Npg-B5-Asn-Thr-Ala-Ala-Tyr-Asn-PyrS2-3Thi-BztA-Gln-NH2"}, "B2": {"name": "I-2016 (peptide)", "peptide": "Ac-[αAllylPro]D[tBuAla][B5(4)]NTAAYN[PyrS2″][3Thi][Bta]Q-NH2", "modifications": "staple 1-4, 4-11; not fully specified; printed as Ac-PL3-Asp-Npg-B5-Asn-Thr-Ala-Ala-Tyr-Asn-PyrS2-3Thi-BztA-Gln-NH2"}}, "note": "Starred links: 1 amine or outer side, 2 acyl side, 3 side chain; linkers in the order of their positions; H or OH if unused. Positions of bridges follow the written chain, without caps; N, C: chain ends. Non-standard residues stand in square brackets, D forms with d. Primed or numbered codes have the meaning given here. PyrS2″ = (S)-3-amino-1-((pent-4-en-1-yloxy)carbonyl)pyrrolidine-3-carboxylic acid (stapling residue), C=CCCCOC(=O)N1CC[C@@](N[*:1])(C(=O)[*:2])C1; B5(4) = 2,2-bis(4-pentenyl)glycine = 2-amino-2-(pent-4-en-1-yl)hept-6-enoic acid (stitching residue), C=CCCCC(CCCC=C)(N[*:1])C(=O)[*:2]; B5(5) = 2,2-bis(4-pentenyl)glycine, 2-amino-2-(pent-4-en-1-yl)hept-6-enoic acid (stitching residue), C=CCCCC(CCCC=C)(N[*:1])C(=O)[*:2]; TfeGA = (S)-2-amino-3-((carboxymethyl)(2,2,2-trifluoroethyl)amino)propanoic acid, O=C([C@H](CN(CC(=O)[*:3])CC(F)(F)F)N[*:1])[*:2]; PyrS2 = (S)-3-amino-1-((pent-4-en-1-yloxy)carbonyl)pyrrolidine-3-carboxylic acid, C=CCCCOC(=O)N1CC[C@@](N[*:1])(C(=O)[*:2])C1; B5(12) = 2-amino-2-(pent-4-en-1-yl)hept-6-enoic acid (two olefin side chains), C=CCCCC(CCCC=C)(N[*:1])C(=O)[*:2]; PyrS2(5) = (S)-3-amino-1-((alkenyloxy)carbonyl)pyrrolidine-3-carboxylic acid, carbamate stapling residue; B5 = 2-amino-2-(pent-4-en-1-yl)hept-6-enoic acid, C=CCCCC(CCCC=C)(N[*:1])C(=O)[*:2]; Phe(3-COOH) = N[C@@H](Cc1cccc(C(=O)O)c1)C(=O)O; Phe(2-Cl) = N[C@@H](Cc1ccccc1Cl)C(=O)O; Bta = N[C@@H](Cc1csc2ccccc12)C(=O)O; αAllylPro = C=CC[C@@]1(C(=O)O)CCCN1; tBuAla = CC(C)(C)C[C@H](N)C(=O)O; 3Thi = N[C@@H](Cc1ccsc1)C(=O)O; Cha = N[C@@H](CC1CCCCC1)C(=O)O; Cit = NC(=O)NCCC[C@H](N)C(=O)O; Nle = CCCC[C@H](N)C(=O)O; Aib = CC(C)(N)C(=O)O"}
{"biological_target": "full-length beta-Catenin (Uniprot ID P35222) (Homo sapiens (Human)) (UniProt P35222)", "assay": "FP competition; full-length beta-catenin + 5FAM-TCF4(10-53) probe", "units": {"IC50": "nM"}}
{"binder": "Ac-[αAllylPro]D[tBuAla][B5(5)]D[Phe(3-COOH)]AAFA[PyrS2″][Phe(2-Cl)][Bta]F-NH2 (staple 1-4, 4-11)", "note": "[I-2025]", "IC50": 109}
{"binder": "B1", "IC50": 522}
{"binder": "B2", "IC50": 703}
{"biological_target": "full-length beta-Catenin (Uniprot ID P35222) (Homo sapiens (Human)) (UniProt P35222)", "assay": "fluorescence polarization competition; competitor 5FAM-TCF4 10-53", "units": {"IC50": "nM"}}
{"binder": "Ac-[αAllylPro]D[tBuAla][B5]D[TfeGA][Nle]AFT[PyrS2][Phe(2-Cl)][Bta]Q-NH2 (staple 1-4, 4-11)", "note": "[I-1692]", "IC50": 17}
{"binder": "Ac-[αAllylPro]D[tBuAla][B5]D[Phe(3-COOH)][Aib]GFL[PyrS2][Phe(2-Cl)][Bta]Q-NH2 (staple 1-4, 4-11)", "note": "[I-1689]", "IC50": 25.5}
{"binder": "Ac-[αAllylPro]D[tBuAla][B5]D[TfeGA][Nle]GFT[PyrS2][Phe(2-Cl)][Bta]Q-NH2 (staple 1-4, 4-11)", "note": "[I-1695]", "IC50": 93}
{"binder": "Ac-[αAllylPro]D[tBuAla][B5]D[TfeGA]AGFT[PyrS2][Phe(2-Cl)][Bta]Q-NH2 (staple 1-4, 4-11)", "note": "[I-1694]", "IC50": 57}
{"binder": "Ac-[αAllylPro]D[tBuAla][B5]D[Phe(3-COOH)][Nle]GFL[PyrS2][Phe(2-Cl)][Bta]Q-NH2 (staple 1-4, 4-11)", "note": "[I-1688]", "IC50": 59}
{"binder": "Ac-[αAllylPro]D[tBuAla][B5]D[TfeGA][Aib]AFT[PyrS2][Phe(2-Cl)][Bta]Q-NH2 (staple 1-4, 4-11)", "note": "[I-1693]", "IC50": 10}
{"binder": "Ac-[αAllylPro]D[tBuAla][B5(4)]D[Phe(3-COOH)]AGFL[PyrS2(5)][Phe(2-Cl)][Bta]Q-NH2 (staple 1-4, 4-11)", "note": "[I-1687]", "IC50": 42}
{"biological_target": "Bcat-Halo (beta-catenin HaloTag construct expressed in HEK293 cells) (UniProt P35222)", "sequence (P35222 whole entry)": "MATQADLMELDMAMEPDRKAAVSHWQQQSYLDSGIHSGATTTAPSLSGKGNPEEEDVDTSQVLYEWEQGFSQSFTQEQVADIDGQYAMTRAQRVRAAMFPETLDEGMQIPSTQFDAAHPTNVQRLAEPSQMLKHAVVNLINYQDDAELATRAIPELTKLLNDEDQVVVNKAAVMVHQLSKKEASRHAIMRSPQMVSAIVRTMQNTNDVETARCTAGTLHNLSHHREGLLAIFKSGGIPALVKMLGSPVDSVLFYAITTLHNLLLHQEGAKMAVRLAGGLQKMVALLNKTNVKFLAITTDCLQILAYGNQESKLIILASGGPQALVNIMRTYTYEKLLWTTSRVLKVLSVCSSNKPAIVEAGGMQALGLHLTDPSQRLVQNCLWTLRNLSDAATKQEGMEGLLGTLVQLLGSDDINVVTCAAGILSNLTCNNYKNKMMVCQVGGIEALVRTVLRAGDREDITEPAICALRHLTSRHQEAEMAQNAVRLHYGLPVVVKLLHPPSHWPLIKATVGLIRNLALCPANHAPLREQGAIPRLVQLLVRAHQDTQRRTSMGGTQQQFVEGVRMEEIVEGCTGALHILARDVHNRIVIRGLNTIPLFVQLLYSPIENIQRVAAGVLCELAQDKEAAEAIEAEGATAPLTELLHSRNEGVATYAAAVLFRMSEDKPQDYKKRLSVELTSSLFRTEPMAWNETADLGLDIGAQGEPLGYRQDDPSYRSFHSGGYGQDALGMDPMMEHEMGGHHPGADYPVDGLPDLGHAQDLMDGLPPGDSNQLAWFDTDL", "assay": "NanoBRET target engagement in HEK293 cells, absolute IC50; competitor TCF4-Luc", "units": {"IC50": "nM"}}
{"binder": "Ac-[αAllylPro]D[tBuAla][B5]D[TfeGA][Nle]AFT[PyrS2][Phe(2-Cl)][Bta]Q-NH2 (staple 1-4, 4-11)", "note": "[I-1692]", "IC50": 10400}
{"binder": "Ac-[αAllylPro]D[tBuAla][B5]D[Phe(3-COOH)][Aib]GFL[PyrS2][Phe(2-Cl)][Bta]Q-NH2 (staple 1-4, 4-11)", "note": "[I-1689]", "IC50": 12500}
{"binder": "Ac-[αAllylPro]D[tBuAla][B5]D[TfeGA][Nle]GFT[PyrS2][Phe(2-Cl)][Bta]Q-NH2 (staple 1-4, 4-11)", "note": "[I-1695]", "IC50": "> 20000"}
{"binder": "Ac-[αAllylPro]D[tBuAla][B5]D[TfeGA]AGFT[PyrS2][Phe(2-Cl)][Bta]Q-NH2 (staple 1-4, 4-11)", "note": "[I-1694]", "IC50": 43600}
{"binder": "Ac-[αAllylPro]D[tBuAla][B5]D[Phe(3-COOH)][Nle]GFL[PyrS2][Phe(2-Cl)][Bta]Q-NH2 (staple 1-4, 4-11)", "note": "[I-1688]", "IC50": 21500}
{"binder": "Ac-[αAllylPro]D[tBuAla][B5]D[TfeGA][Aib]AFT[PyrS2][Phe(2-Cl)][Bta]Q-NH2 (staple 1-4, 4-11)", "note": "[I-1693]", "IC50": 4600}
{"binder": "Ac-[αAllylPro]D[tBuAla][B5(4)]D[Phe(3-COOH)]AGFL[PyrS2(5)][Phe(2-Cl)][Bta]Q-NH2 (staple 1-4, 4-11)", "note": "[I-1687]", "IC50": 18600}
{"biological_target": "full-length beta-Catenin (Uniprot ID P35222) (Homo sapiens (Human)) (UniProt P35222)", "assay": "FP competition vs 5FAM-TCF4(10-53), full-length beta-catenin", "units": {"IC50": "nM"}}
{"binder": "Ac-[αAllylPro]D[tBuAla][B5(12)]DTAAFN[PyrS2][3Thi][Bta]-NH2 (staple 1-4, 4-11; also: later eluting staple isomer)", "note": "[I-860]", "IC50": 61}
{"binder": "Ac-[αAllylPro]D[tBuAla][B5(12)]D[Cit]AAFN[PyrS2][3Thi][Bta]-NH2 (staple 1-4, 4-11)", "note": "[I-861]", "IC50": 40}
{"binder": "Ac-[αAllylPro]D[tBuAla][B5(12)]DLAAFN[PyrS2][3Thi][Bta]-NH2 (staple 1-4, 4-11)", "note": "[I-862]", "IC50": 123}
{"biological_target": "full-length beta-Catenin (Uniprot ID P35222) (Homo sapiens (Human)) (UniProt P35222)", "assay": "fluorescence polarization competition vs 5FAM-TCF4(10-53) on full-length beta-catenin", "units": {"IC50": "nM"}}
{"binder": "Ac-[αAllylPro]D[Cha][B5(4)]DDLLFT[PyrS2″][Phe(2-Cl)][Bta]S-NH2 (staple 1-4, 4-11)", "note": "[I-1152]", "IC50": 65}
{"biological_target": "Bcat-Halo (UniProt P35222)", "sequence (P35222 whole entry)": "as above", "assay": "NanoBRET Abs IC50 in HEK293 cells; competitor TCF4-Luc on Bcat-Halo", "units": {"IC50": "nM"}}
{"binder": "Ac-[αAllylPro]D[Cha][B5(4)]DDLLFT[PyrS2″][Phe(2-Cl)][Bta]S-NH2 (staple 1-4, 4-11)", "note": "[I-1152]", "IC50": 14200}
{"biological_target": "full-length beta-Catenin (Uniprot ID P35222) (Homo sapiens (Human)) (UniProt P35222)", "assay": "fluorescence polarization competition, 5FAM-TCF4 10-53 probe on full-length beta-catenin", "units": {"EC50": "nM"}}
{"binder": "Ac-[αAllylPro]D[Cha][B5(4)]DDLLFT[PyrS2″][Phe(2-Cl)][Bta]S-NH2 (staple 1-4, 4-11)", "note": "[I-1152]", "EC50": 65}
{"biological_target": "full-length beta-Catenin (Uniprot ID P35222) (Homo sapiens (Human)) (UniProt P35222)", "assay": "fluorescence polarization competition; 10 nM full-length beta-catenin with 10 nM 5FAM-TCF4 (residues 10-53) probe as competitor", "units": {"EC50": "nM"}}
{"binder": "Ac-[αAllylPro]D[tBuAla][B5(12)]DTAAFN[PyrS2][3Thi][Bta]-NH2 (staple 1-4, 4-11; also: later eluting staple isomer)", "note": "[I-860]", "EC50": 61}
{"binder": "Ac-[αAllylPro]D[tBuAla][B5(12)]D[Cit]AAFN[PyrS2][3Thi][Bta]-NH2 (staple 1-4, 4-11)", "note": "[I-861]", "EC50": 40}
{"binder": "Ac-[αAllylPro]D[tBuAla][B5(12)]DLAAFN[PyrS2][3Thi][Bta]-NH2 (staple 1-4, 4-11)", "note": "[I-862]", "EC50": 123}
